In assay [1] the target is T1, hu-M-IL1RAP construct, positions S21-T367 (extracellular domain of the membrane form of human IL1RAP) (human, UniProt Q9NPH3 21-367).
T1 construct: Biotinylated when captured on the Biacore chip
T1 sequence: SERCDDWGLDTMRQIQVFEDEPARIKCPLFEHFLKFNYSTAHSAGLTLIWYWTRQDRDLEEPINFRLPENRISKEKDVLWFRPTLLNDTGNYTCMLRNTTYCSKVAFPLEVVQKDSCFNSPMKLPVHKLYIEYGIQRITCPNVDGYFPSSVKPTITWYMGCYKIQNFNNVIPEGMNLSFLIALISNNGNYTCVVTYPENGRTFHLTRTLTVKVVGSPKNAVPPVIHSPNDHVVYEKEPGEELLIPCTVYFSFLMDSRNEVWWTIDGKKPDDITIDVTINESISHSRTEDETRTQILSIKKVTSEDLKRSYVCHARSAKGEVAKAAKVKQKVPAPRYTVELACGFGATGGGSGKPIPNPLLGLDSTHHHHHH
Put plainly: SPR, Fab analyte, 25 C. (Surface plasmon resonance follows binding to a sensor surface in real time, without labels.)
Procedure: (§1) Surface plasmon resonance (SPR) analysis was used to determine binding affinity for hu-M-IL1RAP of the purified Fabs containing the selected single, double, and triple mutations in either the VL or VH regions using a BIACORE™ 8K instrument. […] For kinetics measurements, 5 nM biotinylated hu-M-IL1RAP was captured at 10 μL/min to achieve ˜50 response units in the second flow cell (FC2). FC1 was kept as a reference. […] The sensorgrams were recorded and subjected to reference and buffer subtraction before data analysis with the BIACORE® 8K Evaluation Software (version 1.1.1.7442). Association rates (kₒₙ) and dissociation rates (koff) were calculated using a simple one-to-one Langmuir binding model. The equilibrium dissociation constant (KD) was calculated as the ratio of koff/kₒₙ.

In assay [2] the target is T1, hu-M-IL1RAP construct, positions …. Put plainly: phage display selection of affinity maturation libraries + NGS; enrichment of the mutation R96D (VH).
Procedure: (§2) For the first panning round, plates and phage libraries were blocked in PBS buffer containing 0.05% TWEEN® 20 and 1% BSA for either 1 hour (plates) or 30 minutes (phage libraries). Plates were washed in Wash Buffer (PBS buffer containing 0.05% TWEEN® 20) and incubated with blocked phage libraries for 2 hours with shaking. Non-specifically bound phage was removed by washing vigorously with Wash Buffer. […] Non-specific interactions were inhibited by adding 1/10th v/v 1% BSA.
(§3) For panning rounds three through five, phage libraries were incubated with blocking buffer (PBS buffer with 1% BSA in round 3 and SUPERBLOCK™ PBS buffer (Pierce) and 0.05% TWEEN® 20 in rounds 4 and 5) for 30 minutes and then incubated with decreasing concentrations of biotinylated hu-M-IL1RAP for 1 hour. Hu-M-IL1RAP-bound phage were captured on blocked neutravidin-coated plates, washed extensively with Wash Buffer, and eluted and neutralized in the same manner as in rounds 1 and 2. In the final selection round, 1000× non-biotinylated hu-M-IL1RAP was added as a competitor to increase the selection stringency.
(§4) To extract sequences from affinity maturation libraries using NGS, phagemid double stranded DNA was isolated from E. coli XL-1 cells carrying phagemids from the initial phage library (unsorted libraries) and from the second and third rounds of solution selection (sorted libraries). […]
The target is the same in assay [3]. Briefly: SPR, Fab against parent Fab.
For assay [4] the target is unchanged. Briefly: SPR, Fab analyte, 37 C.
Procedure: as §1
For assay [5] the target is unchanged. Briefly: phage display selection of affinity maturation libraries + NGS; enrichment of the mutation V51S (VH).
Procedure: as §2, §3, §4
For assay [6] the target is unchanged. Put plainly: phage display selection of affinity maturation libraries + NGS; enrichment of the mutation R96Q (VH).
Procedure: as §2, §3, §4
Assay [7] shares this target. Briefly: phage display selection of affinity maturation libraries + NGS; enrichment of the mutation F29Q (VH).
Procedure: as §2, §3, §4

Where a chain is given by its changes, count along the chain named. Names may count otherwise.

Data on four molecules can be found in patent publication US20260015426A1 (23ANDME, published 2026).

Broadly, the Kd is the constant that tells how readily two partners part at equilibrium. High values mean a looser complex, low ones a tighter complex. The koff is the first-order rate constant of dissociation. Low values mean slow dissociation, high ones fast dissociation. The kon is the second-order rate constant of association. A lower kon goes with slower complex formation.

B1: H2 Fab (VH R96D) (Fab, V domains shown)
VH: EVQLVESGGGLVQPGGSLRLSCAASGFTFSNYAMSWVRQAPGKGLEWVATVTEGGDYNYYLDDVKGRFTISRDNAKNSLYLQMNSLRAEDTAVYYCARDDWPYFFDYWGQGTLVTVSS
VL: DIQMTQSPSSLSASVGDRVTITCRASENIYSNLAWYQQKPGKSPKLLVYGAKNLADGVPSRFSGSGSGTDYTLTISSLQPEDFATYYCQHFWTTPRTFGGGTKVEIK
notes: Fab with 8xHis tag
With B1, in assay [1], the affinity, expressed as Kd, was 0.0422 nM; the off-rate constant (koff) was 0.000219 s⁻¹; the kon amounted to 5.19e+06 M⁻¹ s⁻¹. Besides, in assay [2], the “Enrichment ratio (at the highest selection stringency)” value amounted to 4.06 ratio. In assay [3], the “Fold Improvement in KD @ 25° C.” value was found to be 7.99 fold and the “Fold Improvement in KD @ 37° C.” value was 2.39 fold. In assay [4], this molecule had a dissociation constant Kd of 0.112 nM, a koff of 0.000729 s⁻¹ and a kon of 6.5e+06 M⁻¹ s⁻¹.

B2: H3 Fab (VH V51S) (Fab, V domains shown)
VH: B1 VH with V51S, D100R
VL: B1 VL
notes: Fab with 8xHis tag
Consider B2, for which, in assay [1], the dissociation constant (Kd) amounted to 0.0396 nM, the koff worked out at 0.000208 s⁻¹ and the kon stood at 5.26e+06 M⁻¹ s⁻¹. Further, in assay [3], the “Fold Improvement in KD @ 25° C.” value is 8.51 fold and the “Fold Improvement in KD @ 37° C.” value came out at 2.14 fold. Also, in assay [4], the equilibrium dissociation constant (Kd) worked out at 0.125 nM, the koff stood at 0.000602 s⁻¹ and the on-rate constant (kon) is 4.82e+06 M⁻¹ s⁻¹. The “Enrichment ratio (at the highest selection stringency)” value in assay [5] was found to be 3.42 ratio.

B3: H6 Fab (VH R96Q) (Fab, V domains shown)
VH: B1 VH with D100Q
VL: B1 VL
notes: Fab with 8xHis tag
In assay [1], B3 had a Kd of 0.0468 nM, an off-rate constant (koff) of 0.00025 s⁻¹ and an association rate constant (kon) of 5.34e+06 M⁻¹ s⁻¹. In assay [6], the “Enrichment ratio (at the highest selection stringency)” value stood at 3.8 ratio. In assay [3], the “Fold Improvement in KD @ 25° C.” value is 7.2 fold and the “Fold Improvement in KD @ 37° C.” value amounted to 1.43 fold. Also, in assay [4], the Kd stood at 0.188 nM, the koff turned out to be 0.000708 s⁻¹ and the kon came out at 3.76e+06 M⁻¹ s⁻¹.

B4: H4 Fab (VH F29Q) (Fab, V domains shown)
VH: B1 VH with F29Q, D100R
VL: B1 VL
notes: Fab with 8xHis tag
In the case of B4, in assay [7], the “Enrichment ratio (at the highest selection stringency)” value came out at 3.02 ratio. For the same molecule, in assay [1], the Kd was 0.0421 nM, the off-rate (koff) stood at 0.000231 s⁻¹ and the on-rate constant (kon) was 5.49e+06 M⁻¹ s⁻¹. Moreover, the “Fold Improvement in KD @ 25° C.” value in assay [3] was 8 fold.
